To fix the notation:
B1: hAb008-26 (antibody, V domains shown)
VH: QVQLVQSGAEVKKPGASVKVSCKASGYTFTDYTVNWVRQAPGQRLEWIGYINPFNSYTKYNQKFKDRATITADTSASTAYMELSSLRSEDTAVYFCANSVSTYWGQGTTVTVSS
VL: DVVMTQSPLSLPVTLGQPASISCKSSQSLLDSDGKTYLNWLQQRPGQSPRRLIQLVSKLNSGVPDRFSGSGSGTDFTLKISRVEAEDVGVFYCWQGTHFPRTFGGGTKLEIK
notes: Humanized; constant regions not specified
B2: hAb001-21 (antibody, V domains shown)
VH: QVQLVQSGAEVKKPGASVKVSCKASGYSFTNYYMHWVRQAPGQRLEWIGWTYPGNNNIKYNEKFKGRVTITADTSASTAYMELSSLRSEDTAVYYCARDGYGYYFFDYWGQGTLVTVSS
VL: DIVMTQSPDSLAVSLGERATINCKSSQSLLNNRTRKNYLAWYQQKPGQPPKLLIYWASTRESGVPDRFSGSGSGTDFTLTISSLQAEDVAVYYCKQSYTLRTFGGGTKLEIK
notes: as for B1
B3: hAb001-22 (antibody, V domains shown)
VH: B2 VH
VL: B2 VL with S69T
notes: as for B1
B4: hAb001-23 (antibody, V domains shown)
VH: B2 VH
VL: B2 VL with I21M, N22S
notes: as for B1
B5: hAb001-26 (antibody, V domains shown)
VH: B2 VH with V68A
VL: B2 VL with S69T
notes: as for B1
B6: hAb001-27 (antibody, V domains shown)
VH: B2 VH with V68A
VL: B2 VL with I21M, N22S
notes: as for B1
B7: hAb001-28 (antibody, V domains shown)
VH: B2 VH with V68A
VL: B2 VL with I21M, N22S, S69T
notes: as for B1
B8: CAb008 (antibody, V domains shown)
VH: QVQLQQSGAELARPGASVKMSCKTSGYTFTDYTVNWVKQRPGQGLEWIGYINPFNSYTKYNQKFKDKATLTADKSSSTAYMQLSSLTSEDSAVYFCANSVSTYWGQGTTLTVSS
VL: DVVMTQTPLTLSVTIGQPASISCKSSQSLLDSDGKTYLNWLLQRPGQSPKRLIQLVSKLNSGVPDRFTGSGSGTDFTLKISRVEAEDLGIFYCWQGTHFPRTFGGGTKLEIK
notes: Chimeric: mouse variable regions linked to human light and heavy constant regions; constant regions not specified
B9: CAb007 (antibody, V domains shown)
VH: QVQLQQSGPELVKPGASVKISCKASGSTFTDNYIHWVKQRPGQGLEWIGWIYPGSVNIKYNEKFKDKATLTADTSSTTAYMQLSSLSSEDSAIYYCARDISRYYFDYWGQGTTLTVSS
VL: DIVMSQSPSSLAVSAGERVTMNCKSSQSLLNSRTRKNYLAWYQQKPGQSPKLLIYWASTRESGVPDRFTGSGSGTDFTLTISSVQAEDLAVYYCKQSFILRTFGGGTKLAIK
notes: as for B8
B10: CAb001 (antibody, V domains shown)
VH: QVQLQQSGPELVKPGASVKISCKASGYSFTNYYMHWVKQRPGQGLEWIGWTYPGNNNIKYNEKFKGKATLTADTSSSTAYMQLSSLTSEDSAVYYCARDGYGYYFFDYWGQGIILTVSS
VL: B9 VL with R18K, N22S, S32N, V91I, F98Y, I99T
notes: as for B8

Changes are numbered by the printed parent chain.

One assay deals with T1, human CD3e/g antigen (ACRO, catalog number CDG-H52W5) (human, UniProt P07766 23-126; P09693 23-116).
T1 construct: Bought reagent used as the Biacore analyte; also called hCD3e/g
Description: SPR (Biacore 8K), antibody captured via anti-human Fc. As to the method: The equilibrium dissociation constant of binding of CD3 antibodies to human CD3e/g antigen (purchased from ACRO, catalog number CDG-H52W5) was determined by kinetic binding method using Biacore 8K (GE) system. Through the capture method, the carboxylated dextran surface of CM5 chip was first activated with NHS (N-hydroxysuccinimide) and EDC (1-(3-dimethylaminopropyl)-3-ethylcarbodiimide hydrochloride), and then added with an anti-human IgG (Fc) antibody, the free amino group of which could form an amide bond with the activated carboxyl group, thereby being fixed on the chip surface. The anti-human IgG (Fc) antibody could bind to the Fc end of CD3 antibodies to capture the antibodies, and then a series of concentrations of antigen were added to obtain the binding and dissociation curves of antibody and antigen, and the corresponding kinetic constants were calculated by Biacore Evaluation software, as shown in the table below.
A general note: SPR reads the build-up and loss of mass on a sensor chip optically.
The term Kd denotes a measure of binding affinity in units of concentration. Read a high Kd as weaker binding. For orientation: koff means the rate constant with which the complex falls apart. As usually defined, the kon is the second-order rate constant of association. Higher therefore signals fast association. B1 registered a Kd of 18.1 nM, a koff of 0.00482 s⁻¹ and a kon of 266000 M⁻¹ s⁻¹.
Regarding B2, the dissociation constant (Kd) is 16.8 nM, the koff was 0.00669 s⁻¹ and the kon amounted to 398000 M⁻¹ s⁻¹.
The matching figures for B3: 20.4 nM, 0.00848 s⁻¹ and 416000 M⁻¹ s⁻¹.
On to B4, for which binding was put at a Kd of 17.4 nM, the koff is 0.00696 s⁻¹ and the kon was determined as 401000 M⁻¹ s⁻¹.
The matching figures for B5: 17.4 nM, 0.00673 s⁻¹ and 386000 M⁻¹ s⁻¹.
With B6, the Kd stood at 21 nM, the off-rate (koff) turned out to be 0.00823 s⁻¹ and the kon was 391000 M⁻¹ s⁻¹.
In the same order, the values of B7 are 20.4 nM, 0.00745 s⁻¹ and 365000 M⁻¹ s⁻¹.
Molecule B8 yielded a Kd of 21.2 nM, a koff of 0.00372 s⁻¹ and a kon of 176000 M⁻¹ s⁻¹.
Consider B9, for which binding was put at a Kd of 12.1 nM, the koff stood at 0.00532 s⁻¹ and the kon was 438000 M⁻¹ s⁻¹.
B10: the Kd is 23.1 nM, the koff came to 0.00616 s⁻¹ and the kon came to 267000 M⁻¹ s⁻¹.

The next assay deals with T2, CD3 on Jurkat cells (human).
T2 construct: native, on the surface of Jurkat cells; The sheets print only 'Jurkat'; also called human CD3; TCR/CD3 complex on the human T cell line Jurkat
Description: FACS on Jurkat cells, Alexa 488 secondary antibody, MFI [a]. On the procedure:
(§1) Jurkat cells were amplificatorily cultured to 3×10⁶/ml in a T-175 cell culture flask, the culture medium was removed by centrifugation, and the cells were washed twice with PBS buffer (purchased from Invitrogen). After cell counting, the cells were diluted to 2×10⁶ cells/ml with PBS buffer, added with 1% BSA blocking solution, where the percentage was a mass percentage, incubated on ice for 30 minutes, and then washed twice with PBS buffer by centrifugation. The collected cells were suspended to 2×10⁶ cells/mL with FACS buffer (PBS+1% BSA, where the percentage was a mass percentage), and added to a 96-well FACS reaction plate at 100 μl per well, and samples of the purified CD3 antibodies obtained in Example 4 to be tested were added at 100 μl per well, and incubated at 4° C. for 2 hours. The plate was washed twice with FACS buffer by centrifugation, added with 100 μl per well of fluorescent (Alexa 488) labeled secondary antibody (purchased from Jackson), and incubated at 4° C. for 1 hour. After washing 3 times by centrifugation with FACS buffer, the cells were suspended with 100 μl of FACS buffer, and detected and analyzed using BD FACS LSRFortessa (purchased from BD). The results are shown in FIG. 5, where the IgG control is human IgG1 (hIgG).
Usually EC50 (read off the curve) stands for the concentration that produces a half-maximal response. As to B2, the “EC50 (read off the curve)” value is ~0.3 nM.
On the same count and under the same terms, for B3 the value was ~0.3 nM.
Still for that read-out and setting: the same measure for B4: ~0.3 nM.
On to B5, for which the “EC50 (read off the curve)” value was ~0.3 nM.
As for B6, the “EC50 (read off the curve)” value was ~0.3 nM.
Turning to B7, the “EC50 (read off the curve)” value was ~0.3 nM.
Regarding B10, the “EC50 (read off the curve)” value was ~0.3 nM.

Another assay concerns the target T2, CD3 on Jurkat cells. Description: FACS on Jurkat cells, Alexa 488 secondary antibody, MFI [b]. As to the method: as §1
As for B9, the “EC50 (read off the curve)” value is ~0.1 nM.

The next assay addresses T2, CD3 on Jurkat cells. In words: FACS on Jurkat cells, Alexa 488 secondary antibody, MFI [c]. On the procedure:
as §1
As for B1, the “EC50 (read off the curve)” value is ~2 nM.

The target of another assay is T2, CD3 on Jurkat cells. In words: FACS on Jurkat cells, Alexa 488 secondary antibody, MFI [d]. On the procedure:
as §1
As to B8, the “EC50 (read off the curve)” value was ~3 nM.

The record behind these values is US20250346668A1 (GENOR BIOPHARMA, published 2025).
